# According to IntAct's records for PubMed 28572511:
# B1: Lysosomal cobalamin transport escort protein LMBD1 (Homo sapiens), Q9NUN5 (parent)
# chain: MATSGAASAELVIGWCIFGLLLLAILAFCWIYVRKYQSRRESEVVSTITAIFSLAIALITSALLPVDIFLVSYMKNQNGTFKDWANANVSRQIEDTVLYGYYTLYSVILFCVFFWIPFVYFYYEEKDDDDTSKCTQIKTALKYTLGFVVICALLLLVGAFVPLNVPNNKNSTEWEKVKSLFEELGSSHGLAALSFSISSLTLIGMLAAITYTAYGMSALPLNLIKGTRSAAYERLENTEDIEEVEQHIQTIKSKSKDGRPLPARDKRALKQFEERLRTLKKRERHLEFIENSWWTKFCGALRPLKIVWGIFFILVALLFVISLFLSNLDKALHSAGIDSGFIIFGANLSNPLNMLLPLLQTVFPLDYILITIIIMYFIFTSMAGIRNIGIWFFWIRLYKIRRGRTRPQALLFLCMILLLIVLHTSYMIYSLAPQYVMYGSQNYLIETNITSDNHKGNSTLSVPKRCDADAPEDQCTVTRTYLFLHKFWFFSAAYYFGNWAFLGVFLIGLIVSCCKGKKSVIEGVDEDSDISDDEPSVYSA
# partner: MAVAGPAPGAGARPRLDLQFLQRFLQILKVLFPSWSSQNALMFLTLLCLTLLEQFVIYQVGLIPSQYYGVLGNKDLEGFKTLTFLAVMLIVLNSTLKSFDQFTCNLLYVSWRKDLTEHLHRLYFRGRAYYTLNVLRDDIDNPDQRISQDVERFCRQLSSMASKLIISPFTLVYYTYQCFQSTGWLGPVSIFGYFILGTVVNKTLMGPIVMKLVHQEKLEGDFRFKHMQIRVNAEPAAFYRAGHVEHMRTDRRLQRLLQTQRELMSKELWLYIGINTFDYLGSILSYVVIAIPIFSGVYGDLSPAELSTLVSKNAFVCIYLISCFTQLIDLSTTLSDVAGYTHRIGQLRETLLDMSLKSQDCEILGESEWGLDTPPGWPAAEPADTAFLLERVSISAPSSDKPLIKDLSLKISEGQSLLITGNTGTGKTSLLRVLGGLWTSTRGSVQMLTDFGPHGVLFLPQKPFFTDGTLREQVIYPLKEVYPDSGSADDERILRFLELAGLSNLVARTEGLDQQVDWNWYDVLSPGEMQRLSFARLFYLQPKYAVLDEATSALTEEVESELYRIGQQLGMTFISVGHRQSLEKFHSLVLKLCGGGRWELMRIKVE
# B2: Lysosomal cobalamin transporter ABCD4 (Homo sapiens), O14678 (parent)
# chain: B1 partner
# partner: B1 chain
# Variants of: B1
# Conditions: with abcd4_human ABCD4, O14678
row,effect of a mutation on the interaction,Variant
1,decreasing interaction strength,Y232A

# Variants of: B2
# Conditions: with lmbd1_human LMBRD1, Q9NUN5
row,effect of a mutation on the interaction,Variant
1,decreasing interaction strength,G426A
2,decreasing interaction strength,N141K
3,decreasing interaction strength,K427L
4,decreasing interaction strength,D548N
5,disrupting interaction strength,G426A;K427L
6,decreasing interaction strength,R432Q

# Variants of: B2
# Conditions: with lmbd1_human LMBRD1, Q9NUN5
# Remark: another data set of the same source
row,effect of a mutation on the interaction,Variant
1,decreasing interaction strength,G426A;K427L
